Source: patent US20080241152A1 (VEGENICS, published 2008)

Assays:
[1] = target: T1, KDR (VEGFR-2) expressed on porcine aortic endothelial (PAE) cells (UniProt P35968 20-1356, limits assumed); experiment: Scatchard analysis (125I-labelled ligand; receptor format not given, PAE/VEGFR-2 cells in the same example)
T1 construct: whole, on cells; KDR is the name of the human receptor; also called KDR/Flk-1; PAE-KDR cells
Protocol: To study receptor binding, PAE/VEGFR-2 and PAE/VEGFR-3 cells were seeded into 24-well tissue culture plates (Nunclon), which had been coated with 2% gelatin in PBS. […] The binding was allowed to proceed at room temperature for 90 minutes. The plates were then transferred onto ice and washed three times with ice-cold PBS containing 0.1% BSA. The cells were then lysed in 1 M NaOH, the lysates were collected, and the radioactivity was measured using a γ-counter.

[2] = target: the molecule itself; experiment: chemical crosslinking, SDS-PAGE (homodimer)

T1 sequence (P35968 20-1356 limits assumed): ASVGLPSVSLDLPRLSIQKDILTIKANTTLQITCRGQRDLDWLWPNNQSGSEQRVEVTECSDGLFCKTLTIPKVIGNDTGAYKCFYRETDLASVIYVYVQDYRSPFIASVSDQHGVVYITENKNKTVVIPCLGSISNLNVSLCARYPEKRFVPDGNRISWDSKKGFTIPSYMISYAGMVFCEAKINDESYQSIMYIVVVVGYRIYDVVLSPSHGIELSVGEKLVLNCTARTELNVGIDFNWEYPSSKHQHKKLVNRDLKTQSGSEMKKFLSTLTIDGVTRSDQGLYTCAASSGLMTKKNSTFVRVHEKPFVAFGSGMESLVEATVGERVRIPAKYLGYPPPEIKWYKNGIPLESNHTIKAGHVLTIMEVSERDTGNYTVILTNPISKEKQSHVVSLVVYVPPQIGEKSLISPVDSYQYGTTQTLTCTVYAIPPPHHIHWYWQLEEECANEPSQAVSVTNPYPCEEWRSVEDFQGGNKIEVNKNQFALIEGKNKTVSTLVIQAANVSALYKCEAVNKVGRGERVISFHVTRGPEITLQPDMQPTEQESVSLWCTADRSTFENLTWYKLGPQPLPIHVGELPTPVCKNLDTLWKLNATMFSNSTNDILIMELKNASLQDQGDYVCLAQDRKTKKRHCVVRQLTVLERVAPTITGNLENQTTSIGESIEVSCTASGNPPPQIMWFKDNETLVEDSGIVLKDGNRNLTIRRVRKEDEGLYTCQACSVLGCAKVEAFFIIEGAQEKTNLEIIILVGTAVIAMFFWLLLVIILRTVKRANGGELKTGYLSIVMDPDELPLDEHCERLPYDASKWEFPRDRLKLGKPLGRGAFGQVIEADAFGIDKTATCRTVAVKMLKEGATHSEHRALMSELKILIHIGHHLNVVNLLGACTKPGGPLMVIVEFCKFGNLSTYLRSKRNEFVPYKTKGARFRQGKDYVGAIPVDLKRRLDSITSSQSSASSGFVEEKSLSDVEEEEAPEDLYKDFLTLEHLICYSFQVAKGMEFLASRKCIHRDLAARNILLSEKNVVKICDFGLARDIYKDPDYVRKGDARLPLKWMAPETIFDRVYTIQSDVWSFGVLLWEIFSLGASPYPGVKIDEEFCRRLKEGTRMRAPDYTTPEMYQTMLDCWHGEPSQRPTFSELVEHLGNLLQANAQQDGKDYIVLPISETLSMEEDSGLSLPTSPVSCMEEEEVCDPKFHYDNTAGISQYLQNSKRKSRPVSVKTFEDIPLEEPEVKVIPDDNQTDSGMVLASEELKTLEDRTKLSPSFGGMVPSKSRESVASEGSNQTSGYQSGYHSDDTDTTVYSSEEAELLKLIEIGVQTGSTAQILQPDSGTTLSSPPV

- Kd [1]: 0.41 nM
B1: VEGF-C ΔNΔCHis (ligand)
chain: TEETIKFAAAHYNTEILKSIDNEWRKTQCMPREVCIDVGKEFGVATNTFFKPPCVSVYRCGGCCNSEGLQCMNTSTSYLSKTLFEITVPLSQGPKPVTISFANHTSCRCMSKLDVYRQVHSIIHHHHHH
modifications: 125I label in the tracer used for Scatchard and competition assays
notes: also called VEGF-C ΔCΔNHis; recombinantly-matured VEGF-C
- binding result [2]: binds
